“And” between values parts separate entries of the source, which are not always exact repeats. Equal values may be shown once.
How the values were obtained:
SR-BI = assay: SR-BI-mediated cholesterol uptake in Fu5AH hepatoma cells; type: cell-based, rat; details: 2 h pretreatment of Fu5AH cells; uptake from CS-6253 or apo A-I nHDL
Method: J774 cells were labeled for 24h with ^3[H]-cholesterol (Perkin Elmer, Norwalk, Connecticut) in medium containing 1% FBS. Unlabeled rat Fu5AH hepatoma cells that express high levels of SR-BI, were prepared as described previously. Fu5AH were first seeded on 24-well plate at a density of 2x10^5 cells/well in DMEM plus 10% FBS. SR-BI mediated cholesterol uptake is determined as previously reported. The nHDL particles were generated in media cell culture after 6h incubation of cAMP stimulated J774 cells with increased molar concentrations relative to native apo A-I of lipid free CS-6253 (0, 0.018, 0.071, 0.179, 0.357, 0.536, 0.714, and 1.071 μM). […] The total of ^3H-label present in the lipid extract from cells (% cpm) was quantified by liquid scintillation, and plotted as cell-associated radioactivity as described by Yancey et al.. The contribution of SR-BI to the influx of HDL cholesterol (HDL-C) was assessed by a 2h pretreatment of Fu5AH cells with blocker of lipid transport-1 (BLT-1) to inhibit any transport of cholesterol from HDL to the cells via SR-BI [31]. […]
Fig 10 Uptake of cholesterol to hepatic cells expressing SR-BI from plasma containing HDL-CS-6253 or HDL-apo A-I. A. Fu5AH liver hepatoma cells expression of SR-BI transporter ability. […] Protein concentration was determined by standard assay (Bio-Rad). […]

LCAT = LCAT activity (fractional esterification rate) in human plasma; type: biochemical; details: 2 mM DTNB, 1 h, 37°C
Method: Supplementary file pone.0131997.s011.tif: S10 Fig Dynamics of esterification of nascent […]-6253 particles were labelled with cell derived ^3[H]cholesterol and incubated with a normolipidemic plasma at a ratio of (1μg peptide: 10μg plasma apo A-I). LCAT activity was determined after incubation for 1h at 37°C in the presence or absence of 2 mM DTNB. After lipid extraction, ^3[H]cholesterol (unesterified) and ^3[H]CE from plasma were separated by TLC and assayed for radioactivity as described in the online-only Supplementary appendix, S1 Appendix. LCAT activity was measured as CE divided by cholesterol/h. Results are mean (±SD) of triplicate experiments. *P<0.05. (TIF) Click here for additional data file. The fractional cholesterol esterification rate (FER) of LCAT activity was assayed with standard methodology (1,2). […] Cholesterol labeled nHDL particles, Lp-CS-6253 or […] plasma apo A-I), are incubated in total plasma pooled from healthy control subjects for 1h at 37 °C (3). This ratio is selected based on the assumption that the in vivo nascent HDL pool represented ∼10% of total plasma apoA-I mass (4). […] Cellular lipids were extracted and ^3[H]cholesterol and ^3[H]cholesteryl esters (CE) were separated by TLC. The lipids ^3[H]free cholesterol and ^3[H]CE were located by exposure to iodine vapor, and were scraped into liquid scintillating vials and assayed for radioactivity. […]

[1] = target: ABCA1 (human, expressed in BHK cells) (human) (UniProt O95477); assay: cross-linking; intact mifepristone-stimulated BHK-ABCA1 cells in the presence of apo A-I or CS-6253 (0.96 μM), cross-linked or not with 500 μM DSP; lysis with 0.5% n-dodecylmaltoside; SDS-PAGE (4–22.5%), anti-ABCA1 blot; no DTT
[2] = test system: HDL subpopulations in human plasma; assay: HDL subpopulation remodelling (preβ-1 HDL formation) in human plasma, 2D-PAGGE; details: 10 μg lipid free apoA-I: 1 μg plasma apoA-I, 37°C
Method: Apo A-I and CS-6253-containing particles were separated according to charge (agarose, horizontal axis) and size (polyacrylamide gradient, 3% to 20% gel, vertical axis) as previously described. Apo A-I-containing particles were detected by incubating the membranes with immunopurified polyclonal anti-apo A-I antibody (Biodesign). The nHDL-CS-6253 containing particles were detected with immunopurified polyclonal anti-CS-6253 antibody (Biosynthesis Inc., Lewisville, TX). The anti-CS-6253 is a purified rabbit IgG polyclonal antibody specifically produced by Biosynthesis Inc. It is. Cross reactivity of this antibody was verified by Nondenaturing gradient gel electrophoresis (ND-PAGGE) 5% to 35% [24]. The anti-CS-6253 antibody recognizes only CS-6253 peptide in plasma; neither apo A-I nor apo E were detected by this antibody after separation by gradient gel electrophoresis respectively (Fig 1A, 1B and 1C). […]
Fig 8 Time dependent effects of incubation of lipid free CS-6253 with human plasma, on HDL subparticles. […] HDL subpopulations were detected by an anti-apo A-I antibody. […] HDL subfractions were detected by an antibody against CS-6253. […]
Fig 9 Time dependent effects of incubation of lipid free CS-6253 with human plasma, on HDL subparticles. […] Samples were separated by 2D-PAGGE, and ^125I-apoA-I was detected by autoradiography. […]

ABCA1 = ABCA1 (Homo sapiens, UniProt O95477); assay: ABCA1-mediated cholesterol efflux from BHK-ABCA1 cells, acceptor in media; type: cell-based; design: expressed in transfected cells; host or cells: BHK cells, stably transfected, induced with 10 nM mifepristone (gift of J. F. Oram); details: BHK-ABCA1 induced with mifepristone, 4 h, 37°C, mean ± SD
Sequence of ABCA1 (O95477 whole entry): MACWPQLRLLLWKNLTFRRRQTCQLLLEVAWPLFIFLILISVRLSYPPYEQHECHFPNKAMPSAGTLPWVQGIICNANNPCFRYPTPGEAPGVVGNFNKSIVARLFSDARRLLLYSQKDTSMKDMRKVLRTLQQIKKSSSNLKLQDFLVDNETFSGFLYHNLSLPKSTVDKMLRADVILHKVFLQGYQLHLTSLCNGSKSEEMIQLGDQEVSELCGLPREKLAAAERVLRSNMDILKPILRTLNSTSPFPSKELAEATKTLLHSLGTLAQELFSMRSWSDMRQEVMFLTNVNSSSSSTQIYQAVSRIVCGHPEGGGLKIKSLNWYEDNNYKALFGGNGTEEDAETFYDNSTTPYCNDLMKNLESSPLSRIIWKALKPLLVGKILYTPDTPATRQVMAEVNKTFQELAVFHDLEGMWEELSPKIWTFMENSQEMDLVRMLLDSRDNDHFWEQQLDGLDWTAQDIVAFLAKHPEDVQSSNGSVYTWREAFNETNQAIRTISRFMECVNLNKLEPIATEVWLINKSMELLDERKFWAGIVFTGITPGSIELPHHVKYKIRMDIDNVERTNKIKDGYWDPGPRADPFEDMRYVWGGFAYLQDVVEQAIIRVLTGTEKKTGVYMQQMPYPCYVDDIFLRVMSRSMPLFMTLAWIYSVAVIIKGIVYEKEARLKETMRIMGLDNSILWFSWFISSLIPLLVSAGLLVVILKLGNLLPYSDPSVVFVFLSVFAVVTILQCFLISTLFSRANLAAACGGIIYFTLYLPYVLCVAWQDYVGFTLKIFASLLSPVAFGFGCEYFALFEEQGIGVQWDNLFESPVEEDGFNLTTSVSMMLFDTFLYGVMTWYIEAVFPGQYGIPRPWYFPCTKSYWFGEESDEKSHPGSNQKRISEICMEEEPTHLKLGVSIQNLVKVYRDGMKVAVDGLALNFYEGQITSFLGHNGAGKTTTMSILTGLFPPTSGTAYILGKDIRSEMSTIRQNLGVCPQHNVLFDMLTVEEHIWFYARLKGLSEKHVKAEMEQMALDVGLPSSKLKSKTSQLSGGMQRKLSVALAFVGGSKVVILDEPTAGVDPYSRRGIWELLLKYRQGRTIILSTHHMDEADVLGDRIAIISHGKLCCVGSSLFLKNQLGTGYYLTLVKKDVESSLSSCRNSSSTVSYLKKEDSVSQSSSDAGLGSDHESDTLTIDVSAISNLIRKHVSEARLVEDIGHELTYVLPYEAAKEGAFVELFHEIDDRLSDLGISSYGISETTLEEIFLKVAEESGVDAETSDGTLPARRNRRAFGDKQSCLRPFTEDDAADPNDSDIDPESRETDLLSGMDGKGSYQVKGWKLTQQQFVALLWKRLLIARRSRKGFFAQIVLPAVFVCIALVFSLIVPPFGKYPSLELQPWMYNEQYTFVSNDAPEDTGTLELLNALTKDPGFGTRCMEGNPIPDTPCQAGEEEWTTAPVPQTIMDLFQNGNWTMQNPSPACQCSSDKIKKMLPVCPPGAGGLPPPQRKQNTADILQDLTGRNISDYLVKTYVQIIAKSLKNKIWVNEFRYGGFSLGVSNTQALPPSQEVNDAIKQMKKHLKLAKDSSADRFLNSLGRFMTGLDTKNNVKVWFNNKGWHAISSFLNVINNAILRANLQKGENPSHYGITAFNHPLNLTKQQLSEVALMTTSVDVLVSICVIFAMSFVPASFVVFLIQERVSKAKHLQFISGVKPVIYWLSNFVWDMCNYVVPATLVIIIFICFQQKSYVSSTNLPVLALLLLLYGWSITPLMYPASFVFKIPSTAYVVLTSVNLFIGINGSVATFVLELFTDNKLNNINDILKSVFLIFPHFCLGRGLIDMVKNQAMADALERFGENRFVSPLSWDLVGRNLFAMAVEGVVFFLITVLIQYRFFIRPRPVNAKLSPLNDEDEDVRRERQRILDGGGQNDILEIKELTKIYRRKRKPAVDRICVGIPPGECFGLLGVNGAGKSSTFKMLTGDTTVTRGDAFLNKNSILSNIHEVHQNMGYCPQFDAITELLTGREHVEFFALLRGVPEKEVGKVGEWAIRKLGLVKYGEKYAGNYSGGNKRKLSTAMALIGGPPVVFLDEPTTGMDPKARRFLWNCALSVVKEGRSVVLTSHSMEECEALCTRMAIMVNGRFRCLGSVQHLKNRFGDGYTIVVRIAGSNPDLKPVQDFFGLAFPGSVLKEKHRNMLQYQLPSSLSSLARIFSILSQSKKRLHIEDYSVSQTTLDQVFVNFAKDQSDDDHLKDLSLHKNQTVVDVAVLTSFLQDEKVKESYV
Text: BHK cells stably transfected with an ABCA1 or ABCG1 expression vector that is mifepristone inducible and cells transfected with the same vector lacking the ABCA1 cDNA insert (mutant or mock-transfected) were generously provided by the late Dr. John F. Oram from the Department of Medicine, University of Washington, and were characterized and cultured as previously described. […] Mouse-derived peritoneal macrophages J774 were purchased from American Tissue Culture Collection (ATCC TIB-67, Cederlane, Burlington, Canada). For induction of ABCA1, BHK cells were incubated for 18–20 h with 10 nM mifepristone. J774 macrophages were stimulated with 0.3 mM Cpt-cAMP 8-(4-Chlorophenylthio)-cyclic adenosine monophosphate (Sigma). All BHK and J774 macrophages cells were respectively grown and maintained in DMEM and RPMI containing 10% fetal serum until experimental treatment. Studies were carried out on standard 24-well plates (150,000 cells/well) unless stated otherwise
We investigated cholesterol efflux from BHK cells after adding lipid free CS-6253 to media cell culture or to human EDTA-plasma which had been stored at -80°C. BHK overexpressing human ABCA1 were labeled with 2 μCi/ml ^3H-free cholesterol (Perkin Elmer, Norwalk, Connecticut) for 24 h. Afterward, BHK-ABCA1 were stimulated with 10 nmol/l mifepristone for 18–20 h (13). Cells were incubated with various doses of acceptor in media for 4 h at 37°C. Alternatively, plasma samples were first pre-incubated for 5 min at 37°C in plasma at mole ratios (10:1 or 1:1 relative to plasma apo A-I). To obtain the HDL fraction, apoB lipoproteins were precipitated from plasma by polyethylene glycol (PEG). […]
Fig 2 Effect of CS-6253 treatment on cholesterol efflux. […] Cholesterol efflux from either ABCA1 cells or control cells to apo A-I (closed circles), and CS-6253 (closed triangles) was determined at the indicated time points. […] ABCA1 was detected from THP-1 foam cells lysis at 4°C with lysis buffer containing 0.5% n-dodecylmaltoside in the presence of a protease inhibitor mixture followed by low speed centrifugation to remove cell debris. Protein concentration was determined by standard assay (Bio-Rad). […] After electrophoresis, ABCA1 was detected by an anti-ABCA1 antibody. […] E. Quantification of FC and CE in foam cells after interaction with CS-6253 and apoA-I. After a period of 4h cholesterol efflux, THP-1 foam cell lipids were extracted with hexane: isopropanol (3v/2v) as under ‘‘Material and Methods’. 3[H]-FC and 3[H]-CE were separated by TLC and located by exposure to iodine vapor, and were scraped off into liquid scintillating vials and assayed for radioactivity. […]

In the case of CCCCCCC1CCCC1=NNC(N)=S (stereo not drawn) [BLT-1], the “effect on cholesterol uptake (in words)” value (SR-BI) is reported as “inhibited uptake of cholesterol from CS-6253 or apo A-I nHDL”.

With O=C(O)c1cc(SSc2ccc([N+](=O)[O-])c(C(=O)O)c2)ccc1[N+](=O)[O-] [DTNB, 5,5′-Dithiobis(2-nitrobenzoic acid)] the “inhibition of LCAT” value (LCAT) was 98.37 ± 0.08%.

In the case of “ABCA1 (human, expressed in BHK cells), O95477 1-2261”, the ratio of ABCA1 dimer: monomer (cells with CS-6253) [1] is reported as 56.5%, the ratio of ABCA1 dimer: monomer (cells with apo A-I) [1] is reported as 69.2% and the stoichiometry N [1] is reported as 2.

“^125I-lipid free apoA-I: apo A-I iodinated with 125I by Iodo-Gen” was tested, and the “increase in preβ-1 particles, 5 min (125I-apoA-I control)” value ([2]; 5 min) was 0.23 fold and the “increase in preβ-1 particles, 2 h (125I-apoA-I control)” value ([2]; 2 h) was 0.4 fold.

In the case of apolipoprotein E [apo E], the “Km, cholesterol efflux” value (ABCA1) is reported as 10.30±2.84 μg/ml and 0.21±0.05 μM and the “Vmax, cholesterol efflux” value (ABCA1) is reported as 11.45±1.16 % efflux/4h.

Source: article PMC4514675, “Novel Apo E-Derived ABCA1 Agonist Peptide (CS-6253) Promotes Reverse Cholesterol Transport and Induces Formation of preβ-1 HDL In Vitro” (PLoS ONE, 2015)
